Target: asialofetuin (UniProt P12763)
Test: ELISA

Sequence of UniProt P12763 (P12763 19-359): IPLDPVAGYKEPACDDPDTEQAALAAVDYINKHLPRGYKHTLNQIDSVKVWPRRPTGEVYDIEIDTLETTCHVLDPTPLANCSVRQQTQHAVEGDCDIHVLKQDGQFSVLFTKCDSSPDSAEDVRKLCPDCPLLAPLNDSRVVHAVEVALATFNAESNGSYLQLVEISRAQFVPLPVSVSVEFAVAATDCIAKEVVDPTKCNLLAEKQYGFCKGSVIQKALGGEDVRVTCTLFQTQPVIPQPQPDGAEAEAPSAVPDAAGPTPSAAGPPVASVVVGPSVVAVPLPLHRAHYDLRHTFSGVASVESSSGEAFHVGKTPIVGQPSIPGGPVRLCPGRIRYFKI

For “PX-Gal3_(Δ116) (fusion protein of APEX2 and galectin-3 lacking the N-terminal domain) (domain or fragment)”, the EC50 was 0.14 µM.

From publication PMC7959530
